Data: US5942602

Tests used:
[1] = target: human full-length EGF receptor (human) (UniProt P00533)
EGFRvIII (human) [2] = target: EGFRvIII (human) (UniProt P00533)
[3] = target: human full-length EGF receptor (human) (UniProt P00533); remark: listed apart in the source
EGFRvIII (human) [4] = target: EGFRvIII (human) (UniProt P00533); remark: listed apart in the source
[5] = target: human full-length EGF receptor (human) (UniProt P00533); remark: listed apart in the source

Substance	IC50 of cell killing, SKBR3 cells, 40 h [1]	IC50 of cell killing, DH-EΔ801-P cells, 40 h (EGFRvIII (human) [2])	IC50 of cell killing, DH-EGFR-E cells, 40 h [3]	IC50 of cell killing, DH-EΔ801-5 cells, 40 h (EGFRvIII (human) [4])	competition of TGFα-ETA (100 ng/ml) cytotoxicity by 10 µg/ml scFv, 40 h; MDA-MB468 cells (also A431 and SKBR3) (% cell killing) [5]
TGFα-ETA (from UniProt P01135)	0.09 µg/mL	0.7 µg/mL	0.042 µg/mL	> 1 µg/mL	–
scFv(225)	–	–	–	–	63
